Source: publication PMC7782203

Molecular target: recombinant human protective protein/cathepsin A (rhPPCA), 54-kDa precursor form (human)
Assay: SEC

recombinant human protective protein/cathepsin A (rhPPCA), 54-kDa precursor form (enzyme)
stoichiometry N: 2
